Data taken from patent publication US20100249029A1 (Novo Nordisk, published 2010).
One block for each binder: values may come before it.

Key:
[1] = biological target: T1, Biotinylated prolactin receptor BirATag-Ser-PRLR (1-210) (human, UniProt P16471 25-234, biotinylated (BirA tag, biotin added during expression in E. coli)); test: SPR (Biacore); biotinylated BirATag-Ser-PRLR (1-210) amine-coupled to CM5 chip, variant injected at 3.13-50 nM; STDEV 0.56
T1 construct: range 1-210; also called BirA-Ser-PRLR (1-210); not shown: BirA tag (biotin acceptor tag)
T1 sequence: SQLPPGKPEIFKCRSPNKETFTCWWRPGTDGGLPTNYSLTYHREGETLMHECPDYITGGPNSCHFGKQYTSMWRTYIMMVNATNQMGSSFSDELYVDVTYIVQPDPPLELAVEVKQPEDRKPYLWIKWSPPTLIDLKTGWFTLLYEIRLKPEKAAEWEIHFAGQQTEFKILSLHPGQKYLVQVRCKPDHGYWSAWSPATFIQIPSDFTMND
Description: (§1) Biotinylated prolactin receptor BirATag-Ser-PRLR (1-210) was diluted to 20 μg/ml in 10 mM sodium acetate pH 4.0 (Biacore BR-1003-49) and immobilized on a CM5 chip (Biacore BR-1006-68) with the immobilization reagents 1-ethyl-3-(3-dimethylaminopropyl) carbodiimide hydrochloride (EDC), N-hydroxysuccinimide (NHS) and 1.0 M ethanolamine-HCl pH 8.5 (Biacore BR1000-50). The immobilization level was 1500 RU. The PRL variants prepared as described in Example 5 were diluted to a series of concentrations as following: 3.13/6.25/12.5/25/50 nM and run through the PRLR immobilized chip using HBS-EP (10 mM HEPES pH 7.4; 150 mM NaCl; 3 mM EDTA; 0.005% v/v Tween-20) as the running buffer under the following conditions: […]

[2] = biological target: T1, Biotinylated prolactin receptor …; test: SPR (Biacore); biotinylated BirATag-Ser-PRLR (1-210) amine-coupled to CM5 chip, variant injected at 3.13-50 nM; STDEV 0.22
Description: as §1

[3] = biological target: T1, Biotinylated prolactin receptor …; test: SPR (Biacore); biotinylated BirATag-Ser-PRLR (1-210) amine-coupled to CM5 chip, variant injected at 3.13-50 nM; STDEV 0.51
Description: as §1

[4] = biological target: T1, Biotinylated prolactin receptor …; test: SPR (Biacore); biotinylated BirATag-Ser-PRLR (1-210) amine-coupled to CM5 chip, variant injected at 3.13-50 nM; STDEV 0.028
Description: as §1

[5] = biological target: T2, ECD-PRL-R, soluble extracellular domain of the prolactin receptor, Ser-PRLR(1-210) (human, UniProt P16471 25-234); test: HX-MS, 6 uM vPRL with or without 12 uM ECD-PRL-R
T2 construct: range 1-210
T2 sequence: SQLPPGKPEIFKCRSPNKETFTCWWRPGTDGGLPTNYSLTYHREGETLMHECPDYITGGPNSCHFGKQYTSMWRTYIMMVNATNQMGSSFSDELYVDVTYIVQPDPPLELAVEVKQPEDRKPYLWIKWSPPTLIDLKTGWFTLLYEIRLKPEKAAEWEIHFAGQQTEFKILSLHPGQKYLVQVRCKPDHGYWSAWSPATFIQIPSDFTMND
Description: Amide hydrogen/deuterium exchange (HX) was initiated by a 10-fold dilution of vPRL in the presence or absence of ECD-PRL-R into a deuterated buffer (i.e. 20 mM Tris, 150 mM NaCl, 99% D₂O, pH 7.4 (uncorrected value)). Non-deuterated controls were prepared by dilution into an identical protiated buffer. All HX reactions were carried out at 30° C. and contained 6 μM vPRL variant in the absence or presence of 12 μM ECD-PRL-R. At appropriate time intervals, aliquots of the HX reaction were quenched by addition of an equal volume of ice-cold quenching buffer (1.25 M Tris(2-carboxyethyl)phosphine hydrochloride, adjusted to pH 2.0 using NaOH) resulting in a final pH of 2.5 (uncorrected value). Quenched samples were immediately frozen in liquid N₂ and stored at −80° C.
The samples were run on a cooled high pressure liquid chromatography-mass spectrometry system for rapid desalting and mass analysis as described (Rand et al. J. Biol. Chem. 281, 23018 (2006)).

B2: Ser-PRL D68N, G129R, K190R (ligand)
chain: SLPICPGGAARCQVTLRDLFDRAVVLSHYIHNLSSEMFSEFDKRYTHGRGFITKAINSCHTSSLATPENKEQAQQMNQKDFLSLIVSILRSWNEPLYHLVTEVRGMQEAPEAILSKAVEIEEQTKRLLERMELIVSQVHPETKENEIYPVWSGLPSLQMADEESRLSAYYNLLHCLRRDSHKIDNYLKLLRCRIIHNNNC
Kd [2]: 2.8 nM

B4: Ser-PRL S61A, G129R, K190R (ligand)
chain: SLPICPGGAARCQVTLRDLFDRAVVLSHYIHNLSSEMFSEFDKRYTHGRGFITKAINSCHTASLATPEDKEQAQQMNQKDFLSLIVSILRSWNEPLYHLVTEVRGMQEAPEAILSKAVEIEEQTKRLLERMELIVSQVHPETKENEIYPVWSGLPSLQMADEESRLSAYYNLLHCLRRDSHKIDNYLKLLRCRIIHNNNC
Kd [4]: 2.4 nM

B5: vPRL: variant of PRL with amino acid residues 1-11 deleted and the mutations Q12S and G129R (ligand)
chain: SVTLRDLFDRAVVLSHYIHNLSSEMFSEFDKRYTHGRGFITKAINSCHTSSLATPEDKEQAQQMNQKDFLSLIVSILRSWNEPLYHLVTEVRGMQEAPEAILSKAVEIEEQTKRLLERMELIVSQVHPETKENEIYPVWSGLPSLQMADEESRLSAYYNLLHCLRRDSHKIDNYLKLLKCRIIHNNNC
binding result [5]: binds

The next lines start with the values.

Kd [1]: 4.9 nM
B1: Ser-PRL D68N, G129R (ligand)
chain: SLPICPGGAARCQVTLRDLFDRAVVLSHYIHNLSSEMFSEFDKRYTHGRGFITKAINSCHTSSLATPENKEQAQQMNQKDFLSLIVSILRSWNEPLYHLVTEVRGMQEAPEAILSKAVEIEEQTKRLLERMELIVSQVHPETKENEIYPVWSGLPSLQMADEESRLSAYYNLLHCLRRDSHKIDNYLKLLKCRIIHNNNC

Kd [3]: 3.3 nM
B3: Ser-PRL S33A, Q73L, M75T, N76S, F80L, G129R, K190R (ligand)
chain: SLPICPGGAARCQVTLRDLFDRAVVLSHYIHNLASEMFSEFDKRYTHGRGFITKAINSCHTSSLATPEDKEQALQTSQKDLLSLIVSILRSWNEPLYHLVTEVRGMQEAPEAILSKAVEIEEQTKRLLERMELIVSQVHPETKENEIYPVWSGLPSLQMADEESRLSAYYNLLHCLRRDSHKIDNYLKLLRCRIIHNNNC
